The text below walks through data of patent publication US20230212549A1 (3B PHARMACEUTICALS, published 2023).

Numbered stars: 1 amine (or outer) side, 2 acyl side, 3 side chain; on linkers, the order of the positions; unused ones are H or OH. Bridge positions count the residues as written; N and C are the ends. Square brackets hold non-standard residues; d marks the D form. Primed or numbered codes have the meaning given here. * marks the point of attachment. tMeBn(DOTA-PP) = 1,3,5-trimethylbenzylidene, two thioethers to Cys, third CH2 bound to one N of piperazine whose other N bears DOTA, O=C(O)CN1CCN(CC(=O)O)CCN(CC(=O)N2CCN(Cc3cc(C[*:1])cc(C[*:2])c3)CC2)CCN(CC(=O)O)CC1; TBMB(SCH2CH2NH-DOTA) = O=C(O)CN1CCN(CC(=O)O)CCN(CC(=O)NCCSCc2cc(C[*:1])cc(C[*:2])c2)CCN(CC(=O)O)CC1; Ttds(6) = 1,13-Diamino-4,7,10-trioxatridecan-succinamic acid, O=C(CCC(=O)[*:2])NCCCOCCOCCOCCCN[*:1]; Ttds = 1,13-diamino-4,7,10-trioxatridecan-succinamic acid, O=C(CCC(=O)[*:2])NCCCOCCOCCOCCCN[*:1]; 3MeBn = 3-Methylbenzylidene (m-xylylene thioether bridge from α,α′-dibromo-m-xylene); Ttds(4) = spacer between chelator and peptide, O=C(CCC(=O)[*:2])NCCCOCCOCCOCCCN[*:1]; N4Ac = 6-Carboxy-1,4,8,11-tetraazaundecane, an N4-chelator, NCCNCC(CNCCN)C(=O)*; DTPA = O=C(O)CN(CCN(CC(=O)O)CC(=O)O)CCN(CC(=O)O)CC(=O)*; 3Lut = 3,5-lutidylidene (derived from 3,5-lutidine); nBu‑CAyl = n-butylaminocarbonyl, CCCCNC(=O)*; mXylylene = c1cc(C[*:1])cc(C[*:2])c1; PPAc = 4-Carboxymethyl piperazine; Nle = CCCC[C@H](N)C(=O)O; PEG6′ = not defined here; Hexanoyl = CCCCCC(=O)*; βAla = NCCC(=O)O; Sar = CNCC(=O)O A value given as a limit tells only on which side of the number the result lay.

To fix the notation:
B1: N4Ac-PPAc-Ttds-Nle-[C(3MeBn)-PPTEFC]-Bal-OH (peptide)
peptide: {N4Ac-PPAc-Ttds(4)}-[Nle]CPPTEFC[βAla]-OH
modifications: linker 2-8 via 3MeBn
notes: also called 3BP-4784
B2: nBu-CAyl-[C(tMeBn(NOPO-AET))-PPTEFC]-OH (peptide)
peptide: {nBu‑CAyl}-CPPTEFC-OH
modifications: linker 1-7 via tMeBn(NOPO-AET)
notes: also called 3BP-4778
B3: nBu-CAyl-[Cys(tMeBn(DOTA-AET))-Nmg-Pro-Thr-Gln-Phe-Cys]-NH2 (peptide)
peptide: {nBu‑CAyl}-C[Sar]PTQFC-NH2
modifications: linker 1-7 via TBMB(SCH2CH2NH-DOTA)
SMILES: CCCCNC(=O)N[C@H]1CSCc2cc(CSCCNC(=O)CN3CCN(CC(=O)O)CCN(CC(=O)O)CCN(CC(=O)O)CC3)cc(c2)CSC[C@@H](C(N)=O)NC(=O)[C@H](Cc2ccccc2)NC(=O)[C@H](CCC(N)=O)NC(=O)[C@H]([C@@H](C)O)NC(=O)[C@@H]2CCCN2C(=O)CN(C)C1=O
notes: also called 3BP-4621
B4: nBu-CAyl-[Cys(tMeBn(DOTA-AET))-Nmg-Pro-Thr-Gln-Phe-Cys]-OH (peptide)
peptide: {nBu‑CAyl}-C[Sar]PTQFC-OH
modifications: linker 1-7 via TBMB(SCH2CH2NH-DOTA)
SMILES: CCCCNC(=O)N[C@H]1CSCc2cc(CSCCNC(=O)CN3CCN(CC(=O)O)CCN(CC(=O)O)CCN(CC(=O)O)CC3)cc(c2)CSC[C@@H](C(=O)O)NC(=O)[C@H](Cc2ccccc2)NC(=O)[C@H](CCC(N)=O)NC(=O)[C@H]([C@@H](C)O)NC(=O)[C@@H]2CCCN2C(=O)CN(C)C1=O
notes: also called 3BP-4607
B5: Hex-[Cys(tMeBn(DOTA-PP))-Pro-Pro-Ala-Gln-Phe-Cys]-Asp-NH2 (peptide)
peptide: Hexanoyl-CPPAQFCD-NH2
modifications: linker 1-7 via tMeBn(DOTA-PP)
SMILES: CCCCCC(=O)N[C@H]1CSCc2cc(cc(CN3CCN(C(=O)CN4CCN(CC(=O)O)CCN(CC(=O)O)CCN(CC(=O)O)CC4)CC3)c2)CSC[C@@H](C(=O)N[C@@H](CC(=O)O)C(N)=O)NC(=O)[C@H](Cc2ccccc2)NC(=O)[C@H](CCC(N)=O)NC(=O)[C@H](C)NC(=O)[C@@H]2CCCN2C(=O)[C@@H]2CCCN2C1=O
notes: also called 3BP-3745
B6: Hex-[Cys(tMeBn(DOTA-PP))-Pro-Pro-Thr-Ala-Phe-Cys]-Asp-NH2 (peptide)
peptide: Hexanoyl-CPPTAFCD-NH2
modifications: linker 1-7 via tMeBn(DOTA-PP)
SMILES: CCCCCC(=O)N[C@H]1CSCc2cc(cc(CN3CCN(C(=O)CN4CCN(CC(=O)O)CCN(CC(=O)O)CCN(CC(=O)O)CC4)CC3)c2)CSC[C@@H](C(=O)N[C@@H](CC(=O)O)C(N)=O)NC(=O)[C@H](Cc2ccccc2)NC(=O)[C@H](C)NC(=O)[C@H]([C@@H](C)O)NC(=O)[C@@H]2CCCN2C(=O)[C@@H]2CCCN2C1=O
notes: also called 3BP-3739
B7: Hex-[Cys(tMeBn(DOTA-PP))-Pro-Gln-Phe-Pro-Thr-Cys]-Asp-NH2 (peptide)
peptide: Hexanoyl-CPQFPTCD-NH2
modifications: linker 1-7 via tMeBn(DOTA-PP)
SMILES: CCCCCC(=O)N[C@H]1CSCc2cc(cc(CN3CCN(C(=O)CN4CCN(CC(=O)O)CCN(CC(=O)O)CCN(CC(=O)O)CC4)CC3)c2)CSC[C@@H](C(=O)N[C@@H](CC(=O)O)C(N)=O)NC(=O)[C@H]([C@@H](C)O)NC(=O)[C@@H]2CCCN2C(=O)[C@H](Cc2ccccc2)NC(=O)[C@H](CCC(N)=O)NC(=O)[C@@H]2CCCN2C1=O
notes: also called 3BP-3857
B8: N4Ac-Ttds-Glu-[Cys-(3MeBn)-Pro-Pro-Thr-Glu-Phe-Cys]-OH (peptide)
peptide: N4Ac-[Ttds(6)]ECPPTEFC-OH
modifications: linker 3-9 via 3MeBn
notes: also called 3BP-4233
B9: DTPA-Ttds-Nle-[Cys-(3MeBn)-Pro-Pro-Thr-Glu-Phe-Cys]-OH (peptide)
peptide: {DTPA}-[Ttds][Nle]CPPTEFC-OH
modifications: linker 3-9 via mXylylene
SMILES: CCCC[C@H](NC(=O)CCC(=O)NCCCOCCOCCOCCCNC(=O)CN(CCN(CCN(CC(=O)O)CC(=O)O)CC(=O)O)CC(=O)O)C(=O)N[C@H]1CSCc2cccc(c2)CSC[C@@H](C(=O)O)NC(=O)[C@H](Cc2ccccc2)NC(=O)[C@H](CCC(=O)O)NC(=O)[C@H]([C@@H](C)O)NC(=O)[C@@H]2CCCN2C(=O)[C@@H]2CCCN2C1=O
notes: also called 3BP-4229
B10: N4Ac-PEG6-Nle-[C(3Lut)-PPTEFC]-OH (peptide)
peptide: {N4Ac-PEG6′}-[Nle]CPPTEFC-OH
modifications: linker 2-8 via 3Lut
notes: also called 3BP-4773

The target in the first assay is T1, Human recombinant FAP captured on anti-FAP antibody (SPR) (human, UniProt Q12884 26-760).
T1 construct: whole entry of human FAP named; also called rhFAP
The experiment in a line: SPR (Biacore), rhFAP captured by anti-FAP antibody; pKD category A = >8.0. (In SPR one partner is held on a chip, and binding of the other changes the refractive index at the surface.)
For the molecule B1, the pKD was more than 8 pkd.
The same measure, in the same setting: for B2 the value was more than 8 pkd.
In the case of B3, the pKD is more than 8 pkd.
Same read-out and setting: for B4 the value was more than 8 pkd.

The target of the next assay is T2, human fibroblast activation protein (FAP) on WI-38 fibroblasts (human, UniProt Q12884 1-760).
T2 construct: FAP-expressing human WI-38 fibroblasts (ECACC)
In words: competitive FACS, WI-38 cells, Cy5-labeled peptide as competitor; C = pIC50 6.1 to 7.0.
In turn, B5 gave a pIC50 of 6.1 to 7 pic50.
Same read-out and setting: the same measure for B6: 6.1 to 7 pic50; for B7: 6.1 to 7 pic50; for B8: 6.1 to 7 pic50.
B9: the pIC50 was in the range of 6.1 to 7 pic50.

In a further assay the target is T3, human fibroblast activating protein (FAP) on WI-38 fibroblasts (human, UniProt Q12884 1-760).
T3 construct: FAP-expressing human WI-38 fibroblasts (ECACC)
The experiment in a line: competitive FACS on WI-38 cells vs 3 nM Cy5-labeled peptide; pIC50 category B = 7.1-8.0.
B10 yielded a pIC50 of 7.1 to 8 pic50.

The next assay has as its target T3, human fibroblast activating protein …. The experiment in a line: competitive FACS on WI-38 cells vs 3 nM Cy5-labeled peptide; pIC50 category A = >8.0.
In turn, B1 returned a pIC50 of more than 8 pic50.
Same read-out and setting: the same measure for B2: more than 8 pic50.

The target of a further assay is T1, Human recombinant FAP captured on …. The experiment in a line: SPR (Biacore), rhFAP captured by anti-FAP antibody; pKD category B = 7.1-8.0.
B10: the pKD fell in the range of 7.1 to 8 pkd.

In another assay the target is Recombinant human FAP (R&D systems, #3715-SE) (human, UniProt Q12884 26-760). In words: cell-based or functional assay.
On to B8, for which the “pIC50 Category (Activity)” value is not above 6 pIC50.
